First the molecules themselves.
B1: Azoarcus group I ribozyme (parent)
chain: GUGCCUUGCGCCGGGAAACCACGCAAGGGAUGGUGUCAAAUUCGGCGAAACCUAAGCGCCCGCCCGGGCGUAUGGCAACGCCGAGCCAAGCUUCGGCGCCUGCGCCGAUGAAGGUGUAGAGACUAGACGGCACCCACCUAAGGCAAACGCUAUGGUGAAGGCAUAGUCCAGGGAGUGGCGAAAGUCACACAAACCGG

In this data set the parent is B1. The experiment in a line: reverse-splicing fitness (ratio to wild type); higher = more active; in vitro selection; Mg2+ level not given. In short, it runs like this: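 An in vitro group I ribozyme library with randomized positions was T7-transcribed and gel-purified. In triplicate, 10 pmol RNA in EPPS pH 7.5 was reacted with 50 pmoles of a 30-nt RNA substrate for 1 h at 37 °C across several added MgCl2 levels (1–48 mM), then stopped with EDTA. Products were reverse transcribed from a substrate-complementary primer, PCR-amplified and sequenced (HiSeq 4000). Fitness is a variant's read proportion after selection over that before, normalised to wild type.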
As for A120C C150G C169G U176A, the reverse-splicing fitness was 0.0074.
Consider A120C C150G C169G U176G, for which the reverse-splicing fitness turned out to be 0.0036.
Regarding A120C C150G C169G U176C, the reverse-splicing fitness came to 0.00463.
Consider A120C C150G C169A U176G, for which the reverse-splicing fitness came to 0.00553.
In the case of A120C C150G C169A U176C, the reverse-splicing fitness is 0.00991.
Take A120C C150G C169A U176A: the reverse-splicing fitness worked out at 0.0108.
Take A120C A145U C169U U176C: the reverse-splicing fitness was determined as 0.187.
Then A120C A145U C169U U176A, with 0.143; and A120C A145U C169U U176G, with 0.0184.
As for A120C A145U C169U, the reverse-splicing fitness came out at 0.441.
The same measure for A120C A145U C169G: 0.0257.
Then A120C A145U C169A, with 0.032.
Then A120C C150A U176G, with 0.0764; and A120C C150A U176A, with 0.184.
Turning to A120C C150A U176C, the reverse-splicing fitness was found to be 0.195.
For A120C A145G C150U C169G, the reverse-splicing fitness was 0.0232.
Then A120C A145G C150U C169A, with 0.0324; and A120C A145G C150U C169U, with 0.432; and A120C A145U, with 0.886.
The same measure for A120C A145U C150U U176C: 0.562; for A120C A145U C150U U176G: 0.2; for A120C A145U C150U U176A: 0.652.
For A120C A145U C150A C169U, the reverse-splicing fitness is 0.0832.
The same measure for A120C A145U C150A C169G: 0.00666; for A120C A145U C150A C169A: 0.00801.
Then A120C A145G C150A U176G, with 0.0729; and A120C A145G C150A U176A, with 0.263; and A120C A145G C150A U176C, with 0.271.
The same measure for A120C A145U C150A U176G: 0.0668.
For A120C A145U C150A U176C, the reverse-splicing fitness was found to be 0.179.
In the case of A120C A145U C150A U176A, the reverse-splicing fitness came to 0.191.
The same measure for A120C C150U: 0.723; for A120C C150A: 0.241.
Then A120C C150G, with 0.187; and A120C A145U C150A C169A U176A, with 0.0124.
Then A120C A145U C150A C169A U176C, with 0.00632; and A120C A145U C150A C169A U176G, with 0.00377; and A120C C150G C169U U176C, with 0.0388.
For the variant A120C C150G C169U U176A, the reverse-splicing fitness amounted to 0.0117.
With A120C C150G C169U U176G, the reverse-splicing fitness is 0.00544.
The same measure for A120C A145U C150A C169U U176G: 0.0079; for A120C A145U C150A C169U U176A: 0.0459.
Then A120C A145U C150A C169U U176C, with 0.0562; and A120C A145U C150G C169A U176G, with 0.0044.
Then A120C A145U C150G C169A U176A, with 0.0113; and A120C A145U C150G C169A U176C, with 0.00821.
Take A120C A145U C150G C169U: the reverse-splicing fitness was 0.107.
Then A120C A145U C150G C169G, with 0.00781; and A120C A145U C150G C169A, with 0.00905; and A120C C150G C169G, with 0.00811.
Then A120C C150G C169A, with 0.0115; and A120C C150G C169U, with 0.0809.
On to A120C A145G C169U, for which the reverse-splicing fitness was determined as 0.47.
Then A120C A145G C169A, with 0.0366; and A120C A145G C169G, with 0.0256; and A120C A145U C150U C169A U176A, with 0.0137.
Regarding A120C A145U C150U C169A U176G, the reverse-splicing fitness was 0.00474.
A120C A145U C150U C169A U176C: the reverse-splicing fitness turned out to be 0.0111.
The same measure for A120C C150G U176C: 0.114.
Then A120C C150G U176G, with 0.0145; and A120C C150G U176A, with 0.0876; and A120C A145U C150G C169G U176C, with 0.00537.
The same measure for A120C A145U C150G C169G U176G: 0.00367.
For A120C A145U C150G C169G U176A, the reverse-splicing fitness was 0.00633.
Then A120C A145G C150U, with 0.781; and A120C A145G C150G, with 0.234; and A120C A145U C150U C169U, with 0.329.
The same measure for A120C A145U C150U C169G: 0.0196.
Regarding A120C A145U C150U C169A, the reverse-splicing fitness turned out to be 0.0252.
The same measure for A120C A145G C150U C169G U176G: 0.004; for A120C A145G C150U C169G U176C: 0.0182.
As to A120C A145G C150U C169G U176A, the reverse-splicing fitness came to 0.014.
Then A120C A145G U176A, with 0.707; and A120C A145G U176G, with 0.212.
Then A120C A145G U176C, with 0.652; and A120C C150A C169G U176C, with 0.0156; and A120C C150A C169G U176A, with 0.0161.
Then A120C C150A C169G U176G, with 0.00418.
A120C A145G C150G C169A U176C: the reverse-splicing fitness was 0.0132.
Then A120C A145G C150G C169A U176A, with 0.0131; and A120C A145G C150G C169A U176G, with 0.00789; and A120C C150U C169A U176A, with 0.0206.
The same measure for A120C C150U C169A U176G: 0.00428.
